Test results: article PMC10565793, “Biochemical and X-ray analyses of the players involved in the faRel2/aTfaRel2 toxin–antitoxin operon” (Acta Crystallographica. Section F, Structural Biology …, 2023)

Target: T1, FaRel2^Y128F (catalytically impaired toxin FaRel2 from Coprobacillus sp. D7) (Coprobacillus sp. D7, Y128F (stands in the printed letters))
T1 construct: The His6-SUMO tag was removed with UlpI, and complete removal was confirmed by anti-His Western blot; also called tagless FaRel2^Y128F; His6-SUMO-FaRel2^Y128F (before cleavage); source: E. coli BL21(DE3), purified (Ni-NTA, SEC, UlpI cleavage, TALON, SEC); not shown: His6, N-terminal, cleaved; SUMO, N-terminal, cleaved
Experiment: SEC; analytical SEC on a Superdex 75 Increase column in 25 mM HEPES, 300 mM NaCl, 1 mM TCEP, 2 mM MgCl2; proteins run alone, or FaRel2^Y128F and ATfaRel2 mixed in a 1:1.2 molar ratio; molecular weights estimated from elution volume
Details: both partners purified

B1: 6×His-TEV-ATfaRel2 (antitoxin ATfaRel2 from Coprobacillus sp. D7) (natural protein)
chain: AMCYIIAKRFKKSGCVALKAKRGKELADFATDLQKKLGYDIQIVAITRPTAYGEYEPYKFVNSFEEFSIEASRL
notes: The tag is not reported as removed; also called His6-TEV-ATfaRel2; source: E. coli BL21 (DE3), purified (Ni-NTA, SEC)
stoichiometry N: 1 ATfaRel2 per FaRel2^Y128F (2:2 heterotetramer)
